Measurements from US20240369568A1 (GlaxoSmithKline, published 2024).

T1: BCMA (the 'Antigen' of the SPR antigen binding assay) (human, UniProt Q02223 1-54, limits assumed)
T1 construct: also called human BCMA
T1 sequence (looked up): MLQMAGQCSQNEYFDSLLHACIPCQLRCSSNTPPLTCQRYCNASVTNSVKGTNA

B1: purified DL8 drug-load variant of belantamab mafodotin (antibody, human IgG1, kappa)
heavy: not shown
light: not shown
modifications: mcMMAF on each LC C214 (sequential numbering); mcMMAF on HC C224, HC C230 and HC C233 of both heavy chains (sequential numbering)
notes: Antibody drug conjugate, drug load of eight
B2: purified DL0 drug-load variant of belantamab mafodotin (unconjugated belantamab) (antibody, human IgG1, kappa)
heavy: not shown
light: not shown
notes: HIC-purified fraction of belantamab mafodotin
B3: purified DL4a drug-load variant of belantamab mafodotin (antibody, human IgG1, kappa)
heavy: not shown
light: not shown
modifications: mcMMAF on each LC C214 (sequential numbering); mcMMAF on each HC C224 (sequential numbering)
notes: Antibody drug conjugate, drug load of four
B4: purified DL4b drug-load variant of belantamab mafodotin (antibody, human IgG1, kappa)
heavy: not shown
light: not shown
modifications: mcMMAF on HC C230 and HC C233 of both heavy chains (sequential numbering)
notes: Antibody drug conjugate, drug load of four at the hinge
B5: purified DL2 drug-load variant of belantamab mafodotin (antibody, human IgG1, kappa)
heavy: not shown
light: not shown
modifications: mcMMAF on LC C214 of one of the two light chains (sequential numbering); mcMMAF on HC C224 of one of the two heavy chains (sequential numbering)
notes: Antibody drug conjugate, drug load of two; also called DL2a

What follows are binders tested against T1, BCMA (the 'Antigen' of the SPR antigen …) (assay: SPR, release and stability method, specific binding activity).
Procedure: (§1) Antigen, FcγRIIIa, and FcRn specific binding activity of the purified DL variants was measured using SPR. Antigen, FcγRIIIa and FcRN analyses were performed using a release and stability surface plasmon resonance (SPR) method. The specific binding activities measured were between 80-110% for the purified DL variants. […] Despite the trend observed, the decrease in binding activity as a function of drug load is minimal and remains within specification acceptance criteria. It has been observed that as the DAR increases, there is no significant change in antigen FcγRIIIa binding by SPR and antibody-dependent cell-mediated cytotoxicity (ADCC) activity.

Binder	Antigen Binding (%) (specific binding activity)
B1	86%
B2	103%
B3	95%
B4	90%
B5	99%

Each binder was assayed against T2, FcγRIIIa (UniProt P08637 17-208, limits assumed) in the same assay as above.
T2 construct: also called FcyRIIIa
T2 sequence (P08637 17-208 limits assumed): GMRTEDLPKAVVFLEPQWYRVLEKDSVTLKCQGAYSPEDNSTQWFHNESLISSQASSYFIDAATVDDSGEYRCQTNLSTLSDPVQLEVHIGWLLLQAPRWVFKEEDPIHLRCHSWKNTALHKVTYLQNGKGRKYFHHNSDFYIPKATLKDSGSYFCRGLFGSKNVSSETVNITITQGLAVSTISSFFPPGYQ
Procedure: as §1

Binder	FcyRIIIa Binding (%) (specific binding activity)
B1	82%
B2	110%
B3	103%
B4	91%
B5	104%

Each binder was assayed against T3, FcRn (UniProt P55899 24-297; P61769 21-119, limits assumed) in the same assay as above.
T3 construct: also called FcRNn
T3 sequence (P55899 24-297 limits assumed, chain 1 of 2): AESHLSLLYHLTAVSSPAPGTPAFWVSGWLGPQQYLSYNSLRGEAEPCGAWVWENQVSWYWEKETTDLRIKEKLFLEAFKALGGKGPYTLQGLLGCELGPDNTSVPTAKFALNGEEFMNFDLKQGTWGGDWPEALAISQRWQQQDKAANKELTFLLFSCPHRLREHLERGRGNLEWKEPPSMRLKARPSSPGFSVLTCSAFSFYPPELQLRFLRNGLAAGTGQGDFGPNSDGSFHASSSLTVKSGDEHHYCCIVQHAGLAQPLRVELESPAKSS
T3 sequence (P61769 21-119 limits assumed, chain 2 of 2): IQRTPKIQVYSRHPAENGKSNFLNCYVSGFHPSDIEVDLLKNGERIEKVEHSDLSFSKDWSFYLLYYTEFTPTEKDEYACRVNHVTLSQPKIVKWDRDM
Procedure: as §1

Binder	FcRNn Binding (%) (specific binding activity)
B1	93%
B2	108%
B3	102%
B4	99%
B5	109%
